Experimental data: article PMC9284671 (Structure (London, England : 1993), 2022)

Experiments:
Test in all cases: ELISA
[1] = target: MERS-CoV S2P (pre-fusion-stabilized soluble spike) (MERS-CoV EMC/2012 (GenBank AFS88936), UniProt K0BRG7, stabilised)
[2] = target: SARS-CoV S2P (pre-fusion-stabilized soluble spike) (SARS-CoV Urbani, UniProt P59594, stabilised)
[3] = target: SHC014 S2P (pre-fusion-stabilized soluble spike) (Bat SARS-like coronavirus RsSHC014, UniProt U5WLK5, stabilised)
[4] = target: RaTG13 S2P (pre-fusion-stabilized soluble spike) (Bat coronavirus RaTG13 (GenBank …, UniProt A0ABF7PLN6, stabilised))
[5] = target: WIV1 S2P (pre-fusion-stabilized soluble spike) (Bat SARS-like coronavirus WIV1, UniProt U5WI05, stabilised)

Measured: binding result

B1: WS6 (monoclonal antibody, IgG) (antibody, V domains shown)
VH: EVQFQQSGTVLARPGASVKMSCKASGYTFTNYWIHWVKQRPGQGLEYIGGTYPGNGDTTYNQKFKGKAKVTAVTPTSTAYMDLSSLTNEDSAVYYCTRTGSYFDYWGQGTTLTVSS
VL: QIVLTQSPAIMSASPGEKVTISCSATSSVSYIYWYQQRPGSSPKPWIYRTSNLASGVPVRFSGSGSGTSYSLTISNMEAEDAATYYCQQYQSYPPTFGAGTKLELK
binds: all assays above
